In article doi:10.1101/209809 (bioRxiv, 2017):
One block for each binder: values may come before it.

Experiments:
[1] = target: T1, CPSF-160;WDR33 (1-572);CPSF-30 (human;human;human, UniProt Q10570;Q9C0J8;O95639-2 1-1443;1-572;1-244, ||); test: EMSA
[2] = target: CPSF-160;WDR33 (1-572);MBP-CPSF-30(33-170) (human;human;human, UniProt Q10570;Q9C0J8;O95639-2 1-1443;1-572;33-170, ||); test: EMSA
[3] = target: T1, CPSF-160;WDR33 (1-572);CPSF-30; test: cryo-EM structure
[4] = target: CPSF-160–WDR33 binary complex (human, UniProt Q10570 1-1443; Q9C0J8 1-572); test: cryo-EM structure
Sequence of CPSF-160–WDR33 binary complex (Q10570 whole entry, the tested form may be a part, one chain of several): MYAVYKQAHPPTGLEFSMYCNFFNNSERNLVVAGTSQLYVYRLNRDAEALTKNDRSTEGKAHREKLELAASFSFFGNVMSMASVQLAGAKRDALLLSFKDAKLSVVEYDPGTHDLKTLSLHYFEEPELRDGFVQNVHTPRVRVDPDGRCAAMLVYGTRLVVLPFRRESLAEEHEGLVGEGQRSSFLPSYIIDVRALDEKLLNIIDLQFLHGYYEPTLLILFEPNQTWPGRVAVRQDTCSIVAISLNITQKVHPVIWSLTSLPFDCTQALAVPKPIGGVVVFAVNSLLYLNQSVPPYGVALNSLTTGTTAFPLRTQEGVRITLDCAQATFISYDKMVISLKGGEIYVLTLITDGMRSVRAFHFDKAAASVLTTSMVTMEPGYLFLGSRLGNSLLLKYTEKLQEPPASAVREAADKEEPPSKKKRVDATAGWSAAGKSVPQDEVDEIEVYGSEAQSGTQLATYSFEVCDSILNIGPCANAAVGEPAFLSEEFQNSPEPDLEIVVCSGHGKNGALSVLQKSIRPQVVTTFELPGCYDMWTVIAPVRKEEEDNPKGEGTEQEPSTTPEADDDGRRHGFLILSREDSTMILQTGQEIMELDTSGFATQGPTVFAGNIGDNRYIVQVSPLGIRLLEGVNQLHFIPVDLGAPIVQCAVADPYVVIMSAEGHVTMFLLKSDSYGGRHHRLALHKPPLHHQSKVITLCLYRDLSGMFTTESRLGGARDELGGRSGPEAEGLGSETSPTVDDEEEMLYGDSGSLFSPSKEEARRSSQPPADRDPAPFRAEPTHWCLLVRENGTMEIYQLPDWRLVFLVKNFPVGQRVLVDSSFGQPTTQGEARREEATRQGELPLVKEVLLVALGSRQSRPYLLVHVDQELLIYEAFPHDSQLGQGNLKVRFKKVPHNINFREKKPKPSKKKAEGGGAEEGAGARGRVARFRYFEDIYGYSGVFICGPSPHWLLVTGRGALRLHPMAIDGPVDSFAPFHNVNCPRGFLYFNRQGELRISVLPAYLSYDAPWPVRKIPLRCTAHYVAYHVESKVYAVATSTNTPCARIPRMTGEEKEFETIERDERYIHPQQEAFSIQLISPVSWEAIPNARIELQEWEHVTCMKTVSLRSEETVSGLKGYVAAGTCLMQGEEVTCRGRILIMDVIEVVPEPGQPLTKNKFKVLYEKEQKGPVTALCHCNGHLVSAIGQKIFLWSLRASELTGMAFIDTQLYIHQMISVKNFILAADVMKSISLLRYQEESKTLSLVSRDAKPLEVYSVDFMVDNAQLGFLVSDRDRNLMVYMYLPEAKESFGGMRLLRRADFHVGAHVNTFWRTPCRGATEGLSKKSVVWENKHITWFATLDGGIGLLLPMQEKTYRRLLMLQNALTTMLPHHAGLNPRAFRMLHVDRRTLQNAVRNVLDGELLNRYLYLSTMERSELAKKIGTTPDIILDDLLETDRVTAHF

[5] = target: T2, N-terminal region of human WDR33 (residues 1-572) (human, UniProt Q9C0J8 1-572); test: cryo-EM structure
T2 sequence (looked up): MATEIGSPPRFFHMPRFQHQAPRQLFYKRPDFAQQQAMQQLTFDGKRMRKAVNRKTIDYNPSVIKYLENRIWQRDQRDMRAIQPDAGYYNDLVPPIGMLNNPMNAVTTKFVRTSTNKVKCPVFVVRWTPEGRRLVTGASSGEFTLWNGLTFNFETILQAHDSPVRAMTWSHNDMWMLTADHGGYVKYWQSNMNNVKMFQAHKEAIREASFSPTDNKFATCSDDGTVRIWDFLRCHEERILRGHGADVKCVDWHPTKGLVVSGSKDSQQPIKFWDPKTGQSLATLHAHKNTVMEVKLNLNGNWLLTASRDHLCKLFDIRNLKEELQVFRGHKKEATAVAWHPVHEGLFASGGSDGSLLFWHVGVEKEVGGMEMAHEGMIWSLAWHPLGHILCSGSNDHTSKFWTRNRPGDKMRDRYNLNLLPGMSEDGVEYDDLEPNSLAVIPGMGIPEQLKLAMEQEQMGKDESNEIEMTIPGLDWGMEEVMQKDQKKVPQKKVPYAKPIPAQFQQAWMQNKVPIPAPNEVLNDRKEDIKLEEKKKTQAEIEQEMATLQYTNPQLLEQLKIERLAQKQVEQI

T1 sequence (Q10570 whole entry, one chain of several): as the sequence (Q10570 whole entry, the tested form may be a part, one chain of several) above
Sequence of CPSF-160;WDR33 (1-572);MBP-CPSF-30(33-170) (Q10570 whole entry, chain 1 of 2, one chain of several): as the sequence (Q10570 whole entry, the tested form may be a part, one chain of several) above

Binder: AACCUCCAAUAAACAAC (ssRNA) [17-mer PAS RNA (AAUAAA)]
binding result [1]: binds
binding result [2]: binds

Binder: AACCUCCAAUAAACAAC (ssRNA) [17-mer PAS RNA, unlabeled (EM)]
binding result [3]: binds

binding result [4]: binds
binding result [5]: binds
B1: full-length human CPSF-30 (isoform 2), MBP removed by TEV protease (natural protein, UniProt O95639-2 1-244, looked up)
chain: MQEIIASVDHIKFDLEIAVEQQLGAQPLPFPGMDKSGAAVCEFFLKAACGKGGMCPFRHISGEKTVVCKHWLRGLCKKGDQCEFLHEYDMTKMPECYFYSKFGECSNKECPFLHIDPESKIKDCPWYDRGFCKHGPLCRHRHTRRVICVNYLVGFCPEGPSCKFMHPRFELPMGTTEQPPLPQQTQPPAKQRTPQVIGVMQSQNSSAGNRGPRPLEQVTCYKCGEKGHYANRCTKGHLAFLSGQ
